Source: paper PMC9352680, “A comprehensive thermodynamic model for RNA binding by the Saccharomyces cerevisiae Pumilio protein PUF4”

T1: PUF4 RNA-binding domain (Saccharomyces cerevisiae, UniProt P25339 537-888)
T1 sequence: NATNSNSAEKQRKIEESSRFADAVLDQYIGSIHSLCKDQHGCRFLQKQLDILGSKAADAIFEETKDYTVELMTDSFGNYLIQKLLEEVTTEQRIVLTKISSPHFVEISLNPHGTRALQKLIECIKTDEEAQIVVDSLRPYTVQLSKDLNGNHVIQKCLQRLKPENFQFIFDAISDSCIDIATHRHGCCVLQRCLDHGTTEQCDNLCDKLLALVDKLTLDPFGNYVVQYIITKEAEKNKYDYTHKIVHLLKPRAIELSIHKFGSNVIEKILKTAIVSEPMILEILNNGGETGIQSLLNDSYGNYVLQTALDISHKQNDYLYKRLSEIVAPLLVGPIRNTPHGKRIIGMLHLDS


Target: T1, PUF4 RNA-binding domain
Assay: Mg; RNA-MaP; 20 mM Na-HEPES pH 7.4, 30 mM KOAc, 0.75 mM MgCl2, 0.1% Tween-20, 5% glycerol, 0.1 mg/mL BSA, 2 mM DTT; 25 C; 0.0125-409.6 nM protein
Details: tags: N-His6-TEV cleaved; C-SNAP kept, Cy3B-labelled; label: tethered on chip by stalled RNA polymerase

Binder | Kd [µM]
ACAAACCCACACUUAUUAAGACAAAC (ssRNA) [Id_ii_S3_P5E.4_K5.3_C5.2_[T-1C]_H5.3_A5.1_F5.1_T5.2_[T11A]_[A12G]] | > 2.3
ACAAACCUACACUUAUUAGCACAAAC (ssRNA) [Id_ii_S3_P5E.4_K5.3_C5.2_H5.3_A5.1_F5.1_T5.2_[T11G]_[A12C]] | > 2.3
ACAAACCUACACUUAUUAAAACAAAC (ssRNA) [Id_ii_S3_P5E.4_K5.3_C5.2_H5.3_A5.1_F5.1_T5.2_[T11A]] | > 2.3
ACAAACCCACACUUAUUAUGACAAAC (ssRNA) [Id_ii_S3_P5E.4_K5.3_C5.2_[T-1C]_H5.3_A5.1_F5.1_T5.2_[A12G]] | > 2.3
Id_ii_S4_P3E.2_K3.1_C3.2_[C-2G]_[T-1G]_H3.1_A3.1_F3.1_T3.2_[T9A]_[A10G] (ssRNA) RNA: UUUGACAACUGAUCGUUCUUUCUGGUGUAUAUAAGUUCUUUCUCGAUCAGUUGUCUUU | 0.00931
Id_ii_S4_P3E.2_K3.1_C3.2_[C-2T]_[T-1A]_H3.1_A3.1_F3.1_T3.2_[T9G]_[A10C] (ssRNA) RNA: UUUGACAACUGAUCGUUCUUUCUUAUGUAUAUAGCUUCUUUCUCGAUCAGUUGUCUUU | 0.00605
Id_ii_S4_P3E.2_K3.1_C3.2_[C-2T]_[T-1C]_H3.1_A3.1_F3.1_T3.2_[T9C] (ssRNA) RNA: UUUGACAACUGAUCGUUCUUUCUUCUGUAUAUACAUUCUUUCUCGAUCAGUUGUCUUU | 0.00913
Id_ii_S4_P3E.2_K3.1_C3.2_[C-2T]_[T-1C]_H3.1_A3.1_F3.1_T3.2_[T9A]_[A10C] (ssRNA) RNA: UUUGACAACUGAUCGUUCUUUCUUCUGUAUAUAACUUCUUUCUCGAUCAGUUGUCUUU | 0.00296
Id_ii_S4_P3E.2_K3.1_C3.2_[C-2G]_H3.1_A3.1_F3.1_T3.2_[T9A]_[A10T] (ssRNA) RNA: UUUGACAACUGAUCGUUCUUUCUGUUGUAUAUAAUUUCUUUCUCGAUCAGUUGUCUUU | 0.00341
Id_ii_S4_P3E.2_K3.1_C3.2_[C-2T]_H3.1_A3.1_F3.1_T3.2_[T9G]_[A10T] (ssRNA) RNA: UUUGACAACUGAUCGUUCUUUCUUUUGUAUAUAGUUUCUUUCUCGAUCAGUUGUCUUU | 0.00214
Id_ii_S4_P3E.2_K3.1_C3.2_[C-2G]_[T-1G]_H3.1_A3.1_F3.1_T3.2_[T9A]_[A10T] (ssRNA) RNA: UUUGACAACUGAUCGUUCUUUCUGGUGUAUAUAAUUUCUUUCUCGAUCAGUUGUCUUU | 0.0055
Id_ii_S4_P3E.2_K3.1_C3.2_[C-2G]_[T-1G]_H3.1_A3.1_F3.1_T3.2_[A10T] (ssRNA) RNA: UUUGACAACUGAUCGUUCUUUCUGGUGUAUAUAUUUUCUUUCUCGAUCAGUUGUCUUU | 0.0039
Id_ii_S4_P3E.2_K3.1_C3.2_[C-2T]_[T-1A]_H3.1_A3.1_F3.1_T3.2_[T9C]_[A10C] (ssRNA) RNA: UUUGACAACUGAUCGUUCUUUCUUAUGUAUAUACCUUCUUUCUCGAUCAGUUGUCUUU | 0.006
Id_ii_S4_P3E.2_K3.1_C3.2_[C-2T]_[T-1C]_H3.1_A3.1_F3.1_T3.2_[T9G]_[A10T] (ssRNA) RNA: UUUGACAACUGAUCGUUCUUUCUUCUGUAUAUAGUUUCUUUCUCGAUCAGUUGUCUUU | 0.00363
Id_ii_S4_P3E.2_K3.1_C3.2_[C-2T]_[T-1C]_H3.1_A3.1_F3.1_T3.2_[T9C]_[A10T] (ssRNA) RNA: UUUGACAACUGAUCGUUCUUUCUUCUGUAUAUACUUUCUUUCUCGAUCAGUUGUCUUU | 0.00278
Id_ii_S4_P3E.2_K3.1_C3.2_[C-2T]_[T-1G]_H3.1_A3.1_F3.1_T3.2_[T9A]_[A10T] (ssRNA) RNA: UUUGACAACUGAUCGUUCUUUCUUGUGUAUAUAAUUUCUUUCUCGAUCAGUUGUCUUU | 0.00168
Id_ii_S4_P3E.2_K3.1_C3.2_[C-2G]_[T-1C]_H3.1_A3.1_F3.1_T3.2_[T9C]_[A10C] (ssRNA) RNA: UUUGACAACUGAUCGUUCUUUCUGCUGUAUAUACCUUCUUUCUCGAUCAGUUGUCUUU | 0.0105
Id_ii_S4_P3E.2_K3.1_C3.2_[C-2G]_H3.1_A3.1_F3.1_T3.2_[T9C]_[A10C] (ssRNA) RNA: UUUGACAACUGAUCGUUCUUUCUGUUGUAUAUACCUUCUUUCUCGAUCAGUUGUCUUU | 0.0218
Id_ii_S4_P3E.2_K3.1_C3.2_[C-2T]_[T-1A]_H3.1_A3.1_F3.1_T3.2_[T9A] (ssRNA) RNA: UUUGACAACUGAUCGUUCUUUCUUAUGUAUAUAAAUUCUUUCUCGAUCAGUUGUCUUU | 0.0201
Id_ii_S4_P3E.2_K3.1_C3.2_[C-2T]_[T-1C]_H3.1_A3.1_F3.1_T3.2_[T9A]_[A10T] (ssRNA) RNA: UUUGACAACUGAUCGUUCUUUCUUCUGUAUAUAAUUUCUUUCUCGAUCAGUUGUCUUU | 0.00151
Id_ii_S4_P3E.2_K3.1_C3.2_[C-2T]_[T-1A]_H3.1_A3.1_F3.1_T3.2_[T9A]_[A10C] (ssRNA) RNA: UUUGACAACUGAUCGUUCUUUCUUAUGUAUAUAACUUCUUUCUCGAUCAGUUGUCUUU | 0.0159
Id_ii_S4_P3E.2_K3.1_C3.2_[C-2T]_[T-1A]_H3.1_A3.1_F3.1_T3.2_[A10T] (ssRNA) RNA: UUUGACAACUGAUCGUUCUUUCUUAUGUAUAUAUUUUCUUUCUCGAUCAGUUGUCUUU | 0.0055
Id_ii_S4_P3E.2_K3.1_C3.2_[C-2G]_H3.1_A3.1_F3.1_T3.2 (ssRNA) RNA: UUUGACAACUGAUCGUUCUUUCUGUUGUAUAUAUAUUCUUUCUCGAUCAGUUGUCUUU | 0.00231
Id_ii_S4_P3E.2_K3.1_C3.2_[C-2T]_[T-1C]_H3.1_A3.1_F3.1_T3.2_[A10T] (ssRNA) RNA: UUUGACAACUGAUCGUUCUUUCUUCUGUAUAUAUUUUCUUUCUCGAUCAGUUGUCUUU | 0.00129
Id_ii_S4_P3E.2_K3.1_C3.2_[C-2T]_[T-1A]_H3.1_A3.1_F3.1_T3.2_[T9C]_[A10T] (ssRNA) RNA: UUUGACAACUGAUCGUUCUUUCUUAUGUAUAUACUUUCUUUCUCGAUCAGUUGUCUUU | 0.00604

Binder | Kd [µM]
Id_ii_S4_P3E.2_K3.1_C3.2_[C-2G]_[T-1C]_H3.1_A3.1_F3.1_T3.2_[T9C] (ssRNA) RNA: UUUGACAACUGAUCGUUCUUUCUGCUGUAUAUACAUUCUUUCUCGAUCAGUUGUCUUU | 0.0469
ACAAACAUACACUUAUUAAUACAAAC (ssRNA) [Id_ii_S3_P5E.4_K5.3_C5.2_[C-2A]_H5.3_A5.1_F5.1_T5.2_[T11A]_[A12T]] | > 2.3
UCUCUUUAUCUUAUUAUCUCUU (ssRNA) [Ib_S1_P5E.1_K5.1_C5.1_H5.1_[G2A]_[A4C]_A5.1_F5.1_T5.1] | > 2.3
ACAAACCUACACUUAUUAUGACAAAC (ssRNA) [Id_ii_S3_P5E.4_K5.3_C5.2_H5.3_A5.1_F5.1_T5.2_[A12G]] | > 2.3
ACAAACCCACACUUAUUACCACAAAC (ssRNA) [Id_ii_S3_P5E.4_K5.3_C5.2_[T-1C]_H5.3_A5.1_F5.1_T5.2_[T11C]_[A12C]] | > 2.3
ACAAACCCACACUUAUUAUCACAAAC (ssRNA) [Id_ii_S3_P5E.4_K5.3_C5.2_[T-1C]_H5.3_A5.1_F5.1_T5.2_[A12C]] | > 2.3
UCUCUUUGCUUUAUUAUCUCUU (ssRNA) [Ib_S1_P5E.1_K5.1_C5.1_H5.1_[T3C]_[A4T]_A5.1_F5.1_T5.1] | > 2.3
ACAAACCUACACUUAUUAACACAAAC (ssRNA) [Id_ii_S3_P5E.4_K5.3_C5.2_H5.3_A5.1_F5.1_T5.2_[T11A]_[A12C]] | > 2.3
ACAAACAAACACUUAUUAUCACAAAC (ssRNA) [Id_ii_S3_P5E.4_K5.3_C5.2_[C-2A]_[T-1A]_H5.3_A5.1_F5.1_T5.2_[A12C]] | > 2.3
ACAAACCGACACUUAUUAUAACAAAC (ssRNA) [Id_ii_S3_P5E.4_K5.3_C5.2_[T-1G]_H5.3_A5.1_F5.1_T5.2] | > 2.3
ACAAACCGACACUUAUUACUACAAAC (ssRNA) [Id_ii_S3_P5E.4_K5.3_C5.2_[T-1G]_H5.3_A5.1_F5.1_T5.2_[T11C]_[A12T]] | > 2.3
ACAAACCUACACUUAUUAUUACAAAC (ssRNA) [Id_ii_S3_P5E.4_K5.3_C5.2_H5.3_A5.1_F5.1_T5.2_[A12T]] | > 2.3
ACAAACAAACACUUAUUAUAACAAAC (ssRNA) [Id_ii_S3_P5E.4_K5.3_C5.2_[C-2A]_[T-1A]_H5.3_A5.1_F5.1_T5.2] | > 2.3
ACAAACAUACACUUAUUAGGACAAAC (ssRNA) [Id_ii_S3_P5E.4_K5.3_C5.2_[C-2A]_H5.3_A5.1_F5.1_T5.2_[T11G]_[A12G]] | > 2.3
UCUCUUUAUUUUAUUAUCUCUU (ssRNA) [Ib_S1_P5E.1_K5.1_C5.1_H5.1_[G2A]_[A4T]_A5.1_F5.1_T5.1] | 1.55
ACAAACCGACACUUAUUACGACAAAC (ssRNA) [Id_ii_S3_P5E.4_K5.3_C5.2_[T-1G]_H5.3_A5.1_F5.1_T5.2_[T11C]_[A12G]] | > 2.3
ACAAACCGACACUUAUUACCACAAAC (ssRNA) [Id_ii_S3_P5E.4_K5.3_C5.2_[T-1G]_H5.3_A5.1_F5.1_T5.2_[T11C]_[A12C]] | > 2.3
ACAAACCUACACUUAUUACUACAAAC (ssRNA) [Id_ii_S3_P5E.4_K5.3_C5.2_H5.3_A5.1_F5.1_T5.2_[T11C]_[A12T]] | > 2.3
ACAAACAUACACUUAUUACGACAAAC (ssRNA) [Id_ii_S3_P5E.4_K5.3_C5.2_[C-2A]_H5.3_A5.1_F5.1_T5.2_[T11C]_[A12G]] | > 2.3
ACAAACCUACACUUAUUAUCACAAAC (ssRNA) [Id_ii_S3_P5E.4_K5.3_C5.2_H5.3_A5.1_F5.1_T5.2_[A12C]] | > 2.3
UCUCUUUGUAUGAUUAUCUCUU (ssRNA) [Ia_S1_P5E.1_K5.1_C5.1_H5.1_A5.1_[T6G]_F5.1_T5.1] | 0.023
UCUCUUUGCCUUAUUAUCUCUU (ssRNA) [Ib_S1_P5E.1_K5.1_C5.1_H5.1_[T3C]_[A4C]_A5.1_F5.1_T5.1] | > 2.3
ACAAACCAACACUUAUUACUACAAAC (ssRNA) [Id_ii_S3_P5E.4_K5.3_C5.2_[T-1A]_H5.3_A5.1_F5.1_T5.2_[T11C]_[A12T]] | > 2.3
ACAAACAAACACUUAUUAUGACAAAC (ssRNA) [Id_ii_S3_P5E.4_K5.3_C5.2_[C-2A]_[T-1A]_H5.3_A5.1_F5.1_T5.2_[A12G]] | > 2.3
ACAAACCCACACUUAUUAUAACAAAC (ssRNA) [Id_ii_S3_P5E.4_K5.3_C5.2_[T-1C]_H5.3_A5.1_F5.1_T5.2] | > 2.3
